Publication PMC11535475 (2024)

Target: T1, SARS-CoV-2 N protein peptide on HLA-A*11:01 (human)
T1 peptide: ATEGALNTPK
Assay: activation reporter or marker

| Binder | binding result |
| --- | --- |
| TCR-32 (TCR) alpha TRAV3 TRAJ8 CDR3: CAVRVYTGFQKLVF beta TRBV9 TRBJ2-3 CDR3: CASSSNLQGADTQYF | recognises |
| TCR-34-1 (TCR) alpha TRAV14/DV4 TRAJ6 CDR3: CAMREGSKGSYIPTF beta TRBV28 TRBJ2-7 CDR3: CASRLNPGTVSYEQYF | recognises |
| TCR-28 (TCR) alpha TRAV19 TRAJ54 CDR3: CALSEAYQGAQKLVF beta TRBV9 TRBJ2-5 CDR3: CASSVGGTVQETQYF | recognises |

Each binder was assayed against SARS-CoV-2 N protein peptide on HLA-A*11:01 (human) (assay: activation reporter or marker).

| Binder | binding result |
| --- | --- |
| TCR-20 (TCR) alpha TRAV13-1 TRAJ47 CDR3: CAAIQEYGNKLVF beta TRBV5-5 TRBJ2-2 CDR3: CASSPRTLFTGELFF | recognises |
| TCR-33 (TCR) alpha TRAV19 TRAJ15 CDR3: CALSEAEAGTALIF beta TRBV6-2 TRBJ1-2 CDR3: CASSYGSVYGYTF | recognises |
| TCR-10 (TCR) alpha TRAV29/DV5 TRAJ48 CDR3: CAASDENEKLTF beta TRBV6-6 TRBJ2-1 CDR3: CASKGGGTSGYEQFF | recognises |
| TCR-19 (TCR) alpha TRAV29/DV5 TRAJ30 CDR3: CAAMSMNRDDKIIF beta TRBV4-1 TRBJ2-1 CDR3: CASSRLPGLAGGTVVNEQFF | recognises |
| TCR-37-1 (TCR) alpha TRAV5 TRAJ5 CDR3: CAESDMDMGRRALTF beta TRBV7-3 TRBJ2-3 CDR3: CASSRRASGIGTDTQYF | recognises |
| TCR-18 (TCR) alpha TRAV6 TRAJ45 CDR3: CALDGSGGGADGLTF beta TRBV7-8 TRBJ1-3 CDR3: CASSPGRSGNTIYF | recognises |
| TCR-03 (TCR) alpha TRAV38-2/DV8 TRAJ30 CDR3: CAYRSVPLNRDDKIIF beta TRBV19 TRBJ1-5 CDR3: CASSKSGTGYQPQHF | recognises |
| TCR-17 (TCR) alpha TRAV29/DV5 TRAJ30 CDR3: CAARTGDDKIIF beta TRBV10-3 TRBJ1-5 CDR3: CAINKQGFNQPQHF | recognises |
| TCR-24 (TCR) alpha TRAV29/DV5 TRAJ48 CDR3: CAASEAGGNEKLTF beta TRBV15 TRBJ1-5 CDR3: CATSREQAGQPQHF | recognises |
| TCR-08 (TCR) alpha TRAV19 TRAJ33 CDR3: CALSEAVDSNYQLIW beta TRBV7-9 TRBJ1-2 CDR3: CASSLRQGPNYGYTF | recognises |
| TCR-29-1 (TCR) alpha TRAV3 TRAJ33 CDR3: CAVRRLMDSNYQLIW beta TRBV7-6 TRBJ2-1 CDR3: CASSHGTSGSSHEQFF | recognises |
| TCR-38-1 (TCR) alpha TRAV8-6 TRAJ29 CDR3: CAVTTDSGNTPLVF beta TRBV11-2 TRBJ2-1 CDR3: CASSPAFGEQFF | recognises |
| TCR-22 (TCR) alpha TRAV19 TRAJ49 CDR3: CALSEALNTGNQFYF beta TRBV3-1 TRBJ1-6 CDR3: CASSQVAYSPLHF | recognises |
| TCR-09 (TCR) alpha TRAV29/DV5 TRAJ43 CDR3: CAASPEYNNNDMRF beta TRBV18 TRBJ2-3 CDR3: CASSRTLGTSGNTQYF | recognises |

Target: T2, SARS-CoV-2 N protein peptide on HLA-A*11:01 (human)
T2 peptide: QQQQGQTVTK
Assay: activation reporter or marker

| Binder | binding result |
| --- | --- |
| TCR-23-2 (TCR) alpha TRAV6 TRAJ21 CDR3: CALWDFNKFYF beta TRBV27 TRBJ2-5 CDR3: CASSPYSGGQGETQYF | recognises |
